Laboratory results reported in the RNAGym collection of RNA variant scans (doi:10.1073/pnas.2313332121).

B1: TPR t1 (parent)
chain: GACCAAUCUGCCCUCAGAGCUCGAGAACAUCUUCGGAUGCAGAGGAGGCAGGCUUCGGUGGCGCGAUAGCGCCAACGUCCUCAACCUCCAAUGCAUCCCACCACAUGAUGAUGCCUGAAGAGCCUUGGUUUUUUG

Variants of: B1
Assay: polymerase ribozyme fitness, log enrichment relative to wild type (log ratio); higher = more active; in vitro selection for triplet polymerase activity
Summary of the method: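 Fitness measures genotype enrichment against wild-type enrichment on a logarithmic scale, with inverse-variance-weighted averaging of replicates. The logarithm is base 2, and genotypes were kept only with ≥10 input reads and ≥1 read per output in Illumina sequencing. The sequenced libraries came from one triplicate in vitro selection round, including frozen incubation at −7 °C, of PCR-built, transcribed mutant libraries of each subunit of a heterodimeric triplet polymerase ribozyme.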

In order of rising “polymerase ribozyme fitness (log ratio)” value:
1. GACCAAUCUGCCCUCAGAGCUCGAGAACAUCUUCGGAUGCAGAGGAGGCAGGCUUCGGUGGCGCAAUAGCGCCAACGUCCUCAACCUCCAAUGCAUCCCACCACAGGAUGAUGCCUGAAGAGCCUUGGUUUUUUG [G65A U106G]  -6.66
2. GACCAAUCUGCCGUCAGAGCUCGAGAUCAUCUUCGGAUGCAGAGGAUGCAGGCUUCGGUGGCACGAUAGCGCCAACGACCUCAACCUCCAAUGCAUCCCACCACAUGAUGAUGCCUGAAGAGCCUUGGUUUUUUG [C13G A27U G47U G63A U78A]  -6.63
3. GACCAAUCUGACCUCAAAGCUCGAGAACAUCUUCGGAUGCAGAGGAGGCAGGCUUCGGUGGCGCGAUAGCGCCAACGUCCUCAACCUCCAAUGCAUCCCACCACAUGAUGAUGCCUGAAGAGCCUUGGUUUUUUG [C11A G17A]  -6.16
4. GACCAAUCUGCCCUCAGCGCUCGAGAACAUCUUUGGAUGCAGAGGAGGCAGGCUUCGGUGGCGCGAUAGCGCCAACGUCCUCAACCUCCAAUGCAUCCCACCACAUGAUGAAGCCUGAGGAGCCUUGGUUUUUUG [A18C C34U U112A A119G]  -6.08
5. GACCAAUCUGCCCUCAUAGCUCGAGAACAUCUUCGGAUUCAGAGGAGGCAGGCUUCGGUGGCGCGAUAGCGCCAACGUCCUCAACCUCCAAUGCAUCCCACCACAUGAUUAUGCCUGAAGAGCCUUGGUUUUUUG [G17U G39U G110U]  -4.99
6. GACCAAUCUGCCCUCAGAGCUCGAGAACAUCUUCGGAUGCAGAGGAGGCAGGCUUCGGUGGCGCGAUAGCGCCAAAGUUCUGAACCUCCAAUGCAUCCCCACACAUGAUGAUGCCUGAAGAGCCUUGGUUUUUUG [C76A C79U C82G A100C C101A]  -4.79
7. GACCGAUCUGCCCUCAGAGUUCGAGAACAUCUUCGGAUGCAGAGGAGGCAGGAUUCGAUGGCGCGAUAGCGCCAACGUCCUCAACCUCCAAUGCAUCCUACCACAUGAUGAUGCCUGAAGAGCCUUGGUUUUUUG [A5G C20U C53A G58A C99U]  -4.64
8. GACCAAUCUGCCCUCAGAGCUCGAGAACAUCUUCGGAUGCAGAGGAGGCAGGCUUCGGUGGCGUGAUAGCGCGAACGUCCUCAACCUCCAAUGUAUCCCACCACAUGAUGAUGCCUGAACAGCCUUGGUUUUUUG [C64U C73G C94U G120C]  -3.99
9. GACCAAUCUGCCCUCAGAGCUCGAGAACAUCUUCGAAUGCAGAGGAGGCAGGCUUCGGUGGCGCGAUAGCGCCAACGUCCUCAACCUCCAAUGCAUACCACCACAUGAUGAUGCCUGAAGAGCCUUGGUUUUUUG [G36A C97A]  -3.86
10. GACCAAUCUGCCCUCAGAGUUCGAGAACAUCUUCGGAUGCAGAGGAGGCAGGCUUCGGUUGCGCGAUAGCGCCAACGUCCUCAACCUCCAAUGCAUCCCACCACAUGAUAAUGCCUGAAGAGCCUUGGUUUUUUG [C20U G60U G110A]  -3.8
11. GACCAAUCUGCCCCCAGAGCUCGAGAACAUCUUCGGAUGCAGAGGAGGCAGGCUUCUGUGGCGCGAUAGCGCCAACGUCAUCAACCUCCAAUGCAUCCCACCACAUGAUGAUGCCUGAAGAGCCUUGGUUUUAUG [U14C G57U C80A U133A]  -3.25
12. GACCAAUCUGACCUCAGAGCUGGAGAACAUCUUCGGAUGCAGAGGAGACAGGCUUCGGUGGCGCGAUAGCGCCAACGUCCUCAACCUCCAAUGCAUCCCACCACAUGAUGAUGCCUGAGGAGCCUUGGUUUUUUG [C11A C22G G48A A119G]  -3.23
13. GACCAAUCUGCCAUCAGAGCUCGAGAACAUCUUCGGAUGCAGAGGAGGUAGGGUUCGGUGUCGCGAUAGCGCCAACGUCCUCAACCUCCAAUGCAUCCCACCACAUGAUGAUGCCUGAAGAGCCUUGGUUUUUUG [C13A C49U C53G G61U]  -3.09
14. GACCAAUCUGCCCUCCGAGCUCGAGAACAUCUUCGGAUGCAGAGGAGGCAGGCUUCGGUGGCGCGAUAGCGCUAACGUCCUCAACCUCCAAUGCAUCCCACCACAUGAUGAUGCGUGAAGAGCCUUGGUUUUUUG [A16C C73U C115G]  -3.06
15. GACCAAUCUGCCCUCAGCGCUCGAGAACAUCUUCGGAUGCAGAGGAGGCAGGCUUCGGUGGCGCGAUAGCGCCAACGUCCUCAACCUCCAAUGCAUCCCACCACAAGAUGAUGCCUGAAGAGCCUUGGUUUUUUG [A18C U106A]  -3.06
16. GACAAAUCUGCCCUCAGAGCUCGAGAACAUCCUCGGAUGCAGAGGAGGCAGGCUUCGGUGACGCGAUAGCGCCAACGUCCUCAACCUCCAAUGCAUCCCACCACAAGAUGAUGCCUGAAGAGCCUUUGUGUUUUU [C4A U32C G61A U106A G127U U130G G135U]  -2.56
17. GACCAAUCUGCCCUCAGAGCUCGAGAACAUCUUCGGAUGCAGAGGAGACAGGCUUCGGUGGCGCGAUAUCGCCAACGUCCUGAACCUCCAAUGCAUCCCACCACAUGAUGAUUCCUGAAGAGCCUUGGUUUAUUG [G48A G69U C82G G113U U132A]  -2.33
18. GACCAAUGUGCCCUCAGAGCUCGAGAACAUCUUCGGUUGCAGAGGAGGCAGGCUUCGGUGGCGCGAUAGCGCCAACGUCCUCAACCUCCUAUCCAUCCCACCACAUGAUGAUGCCUGAAGAGCCUUGGUUUAUUG [C8G A37U A90U G93C U132A]  -2.23
19. GACCACUCUGCCCUCAGAGCUCGAGAACAUCUUCGGAUGCAGACGAGGCAGGCUUCGAUGGCGCGAUAGCGCCAACGUCCUCAACCUCCAAUGCAACCCACCACAUGAUGAUGCCUGAAGAGCCUUGGUUUUUUG [A6C G44C G58A U96A]  -2.15
20. GACCAAUCUGCCCUCAGAGCUCGAGAACAUCUUCGGAUGCAGAGGAGGCAAGCUUCGGUGGCGCGAUAGCCCCAACGUCCUCAACCUCCAAUGCAUCCCACCACAUGAUGACGCCUGAAGAGCCUUGGUUUUUUG [G51A G71C U112C]  -2.08
21. GACCAAUCUGCCCUCAGAGCUCGAGAACAUCUUCGGAUGCAGAGGAGGCAGGCUUCGGUGGCGCGAUAGCGCCAACGUCCUCAACCUCCAAUGCAUUCCACCACAGGAUGAUGCCUGAAGAGUCUUGGUUUUUUG [C97U U106G C123U]  -2.04
22. GACCAAACUGCCCUCAGAGCUCGAGAACAUCUUCGGAUGCAGAGGAGGCAGGCUUCGGUGGCGCGAUAGCGCCAACGUCCUCAACCUCGAUUGCAUUCCACCACAUGAUGAUGCUUGAAGAGCCUUGGUUUUUUG [U7A C89G A91U C97U C115U]  -1.85
23. GACCAAUCUGCCCUCAGAGCUCGAGAACAUCUUCGGAUGCAGAGGAGGCAGGCUUCGGUGGUGCGAUAGCGCCAACGUCCUCAACCUCCAAUGCAUCCCACCACAUGAUGAUGCCUGAAGAGCCUUGUUUUUUUG [C62U G128U]  -1.78
24. GACCAAUCUGCCCUCAGAGCUCGAGAACAUCUUCGGAUGCAGAGGAGGCAGACUUCGGUGGCGCGAUACCGCCAACGUCCUCAACCUCCAAUGCAUCCCACCACAUGAUGAUGCCUGAAGAGCCUUGGUUUUUUG [G52A G69C]  -1.72
25. GACCAAUCUGGCCUCAGAGCUCGAGAACAUCUUCGGAUGCAGAGGAGGCAGGCUUCGGUGGCGCGAUAGCGCCAACGUCCUCAACCUACAAUGCAUCCCACAACAUGAUGAUGCCUGAAGAGCCUUGGUUUUUUG [C11G C88A C102A]  -1.55
26. GACCAAUCUGCCCUCAGAGCUCGAGAACAUCUUCGGAUGCAGAGGAGGCAGGCUUAGGUGGCGCGAUAGCGCCAACGUCCUCAACCUCCAAUGCAUCCCACUACAUGAUGAUGCCUGAAGAGCCUUGGUUUUUUG [C56A C102U]  -1.54
27. GACCAAUCUGCCCUCAGAGCUCGAGAACAUCUUCGGAUGCUGAGGAGGGAGGCUUCGGUGGCGCGAUAGCGCCAACGUCCUCCACCUCCAAUGCAUCCCACCACAUGAUGAUGCCUGAAGAGCCUUGGUUUUGUG [A41U C49G A83C U133G]  -1.44
28. GACCAAUCUGCCCUCAGAGUUCGAGAACAUCUUCGGUUGCAGAGGAGGCAGGCUUUGGUGGCGCGAUAGCGCCAACGUCCUCAACCUCCAAUGCAUCCCACCACAUGAUGAUGCCUGAAGAGCCUUGGUUUUUUG [C20U A37U C56U]  -1.39
29. GACCAAUCUGCCCUCAGAGCUCGAGAACAUCUUCGGAUGCAGAGGAGGCAGGCUUCGGUGGCGCGAUAGCGCCAACGUCCUCAACCUCUAAUGCAACCCACCACAUGAUGAUGCCUGAAGAGCCUUGGUUUUUUG [C89U U96A]  -1.3
30. GACCAAUCUGCCCUCAGAGCUCGAGAACAUCUUCGGUUGCAGAAGAGGCAGGCUUCGGUGGCGCGAUAGCGCCAACGUCCUCAACCUCCAAUGCAUCCCACCACAUGAUGAUGCCUGAAGAACCUUGGUCAUUUU [A37U G44A G122A U130C U131A G135U]  -1.23
31. GACGAAUCUGCCCUCAGAGCUCGAGAACAUCUUCGGAUGCAGAGGAGGCAGGCUUCGGUUGCGCGAUAGCGCCAACGUCCUCAACCUCCAAUGCAUCCCACCACAUGAUGAUGCCUGAAGAGCCUUGGUUUUUUG [C4G G60U]  -1.18
32. GACCAAUCUGCCCUCAGAGCUCGAGAACAUCUUCGGAUGCAGAGGAGGCAGGCUUCUGUGGCGCGAUAUCGCCAACGUCCUCAACCUCCAAUGCAUCCCACCACAUGAUGAUGCUUGAAGAGCCUUGAUUUUUUG [G57U G69U C115U G128A]  -1.11
33. GACCAAUCUGCCCUCAGAGCUCGAGAACAUCUUCGGAUGCAGAGUAGGCAGGCUCCGGUGUCGCGAUAGCGCCAACGUCCUCAACCUCCAAUGCAUCCCACCACAUGAUGAUGCCUGAAGAGCCUUGGUUUUUUG [G45U U55C G61U]  -1.09
34. GACCAAUAUGCCCUCAGAGCACGAGAACAUCUUCGGAUGCAGAGGUGGCAGGCUUCGGUGGCGCGAUAGCGCCAACGUCCUCAACCUCCAAUGCAUCCCACCACAUGAUGAUGCCUGAAGAGCCUUGGUUUUUUG [C8A U21A A46U]  -1.03
35. GACCAAUCUGCCCUCAGAGCUCGAGAACAUCUUCGGAUGCAGAGGAGGGAGGCUUCGGUGGCGCGAUAGCGCCAACGUCCUCAACCUCCAAUGCAUCCCACCACAUGAUGAUGCCUGAAGAACCUUGGUUUUUUG [C49G G122A]  -0.99
36. GACCAAUCUGCCCUCAGAGCUCGAGAACAUCUUCGGAUGCAGAGGAGGCAGGCUUCGAUGGUGCGAUAGCGCCAACGUCCUCAACCUUCAAUGCAUCCCACCACAUGAUGAUGCCUGAAGAGCCUUGGUUUUUUG [G58A C62U C88U]  -0.946
37. GACCAAUCUGCCCUCAGAGUUCGAGAACAUCUUCGGAUGCAGAGGAGGCAGGCAUCGGUGGCGCGAUAGCGCCAACGUCCUCAACCUCCAAUGCAUCCCACCACAUGAUGAUGCCUGAAGAGCCUUGGUUUUUUG [C20U U54A]  -0.906
38. GACCAAUCUGCCGUCAGAGCUCGAGAACAUCUUCGGAUGCAGAGGAGGCAGGCUUCGGUGGCGCGAUAGCGACAACGUCCUCAACCUCCAAUGCAUCCCACCACAUGAUGAUGCCUGAAGAGCCUUGGUUUUUUG [C13G C72A]  -0.649
39. GACCAAUCUGGCCUCAGAGCUCGAGAACAUCUUCGGCUGCAGAGGAGGCAGGCUUCGGUGACGCGAUAGCGCCAACGUCCUCAACCUCCAAUGCAUCCCACCACAUGAUGAUGCCUGAAGAGCCUUGGUUUUUUG [C11G A37C G61A]  -0.00618
40. GAUCAAUCUGCCCUCAGAGCUCGAGAACAUCUUCGGAUGCAGAGGAGGCAGGCUUCGGUGGCGCGAUAGCGCCAACGCCCUCAACCUCCAAUGCAUCCCACCACAUGAUGAUGCCUGAAGAGCCUUGGUUUUUUG [C3U U78C]  0.0101
41. GACCAAUCAGCCCGCAGAGCUCGAGAACAUCUUCGGAUGCCUAGGAGGCAGGCUUCGGUUGCGCGAUAGCGCCAACGUCCUCAACCUCCAAUUCAUCCCACCACAUGAUGAUGCCUGAAGCGCCUUGGUUUUUUG [U9A U14G A41C G42U G60U G93U A121C]  0.0286
42. GACCAAUCUGCCCUCGGCGCUCGAGAACAUCUUCGGAUGCAGAGGAGGCAGGCGUCGGUGGCGCGAUAGCGCCAACGUCCUCAACCUCCAAUGCAUCCCACCACAUGAUGAUGCCUGAAGGGCCUUGGUUUUUUG [A16G A18C U54G A121G]  0.49
